The record followed here is patent US20040058457 (published 2004).

Data set [1] concerns the target T1, GST-Zif268 (PED107) (mouse, UniProt P08046 SEQ:1-90). Nature of the data set: EMSA; protein bound to Au-GSH nanoparticles; DNA co-migrated with Au particles; 1% agarose, 1xTAE, RT 10 min. Background: Mobility shift assays separate free from complexed probe on a gel.
For data set [2], the target named is T1, GST-Zif268 (PED107). Nature of the data set: EMSA; 1% agarose gel, RT 10 min, 0-4 uL of 1 mg/mL protein; shorter DNA trapped in well with increasing protein.

B1: NZ-23 (as added to Au-GSH/GST-Zif268 assay) (dsDNA)
DNA 1: AAGGGTTCAGCGTGGGCG
DNA 2: CGCCCACGCTGAACCCTT
Consider B1, for which, in data set [1], the binding result is “binds”.

B2: NZ-23 420 bp fragment with 23 tandem Zif268 sites separated by NRE sites (dsDNA)
DNA 1: AAGGGTTCAGCGTGGGCG
DNA 2: CGCCCACGCTGAACCCTT
For the molecule B2, in data set [2], the binding result is listed as “binds”.
